Data from the emibetuzumab library of Makowski et al. (2022).

B1: VH:VL chains; a variant is named by its letters at X, in order (parent)
chain 1: QVQLVQSGAEVKKPGASVKVSCKASGYTFTDYXMHWVRQAPGQGLEWMGXVNPNXXXTTYNQKFEGRVTMTTDTSTSTAYMELRSLRSDDTAVYYCARXNXLDXWGQGTTVTVSS
chain 2: DIQMTQSPSSLSASVGDRVTITCSVSSSVSSIYLHWYQQKPGKAPKLLIYSTSNLASGVPSRFSGSGSGTDFTLTISSLQPEDFATYYCQVYSGYPLTFGGGTKVEIK

Variants of: B1
Assay: yeast display scFab, FACS + sequencing
Summary of the method: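 For the non-specific binding call, a heavy-chain CDR mutant scFab library on the yeast surface was FACS-sorted and samples from two replicates were deep sequenced. Cells were labelled with anti-Myc and either biotinylated ovalbumin (260 μg/mL in PBSB, 3 h, room temperature) or soluble membrane proteins (130 μg/mL, 20 min on ice), with gates on the top 25% and bottom 10% of binders. With membrane protein and ovalbumin samples pooled, a sequence in ≥3 of 4 positive samples and no negatives was scored positive, and the converse rule scored negatives.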

Variant | non-specific binding call
YRRRGVVV | binds
FRTRDALD | binds
YRRRTAAV | binds
YRTKGAAD | binds
YTAGSALV | no binding
YRTRSSGA | binds
YRRRSSLA | binds
FRTGDDSF | no binding
YRRRGYLV | binds
VRTRSSLD | binds
YTATGFAV | binds
YRTADDWV | binds
FRTRDSAA | binds
VRTRAAVD | binds
VRTGDSAY | no binding
VRTEDASF | no binding
VRTGGAAA | binds
YRTRDVGF | binds
YRTRDSVD | binds
YRTRDSVA | no binding
FRTKSDLA | no binding
VRTEDSGD | no binding
YRTGTAGF | binds
YRTAGSSD | binds

Variant | non-specific binding call
ATAGSASD | no binding
YRTRGASD | binds
YTAGSDGV | no binding
YTAGSDGA | no binding
YRRRSSSS | binds
VRTKAVAY | binds
FRRTDFVA | binds
DTAESSSF | no binding
YRTAGAAD | binds
YTAGSDWY | no binding
VTAESSSF | no binding
SRTRGFVV | binds
FRTGGAVA | binds
DRTGDDVA | no binding
DRTGDDVY | no binding
FRTGDAGA | no binding
YRTRGAAA | binds
ARRTDVAD | binds
ARTKGSGY | binds
FRTKAAVY | binds
VRTADVGV | binds
STAGSASD | no binding
VRTRSSGV | binds
YRTRSAGA | binds

Variant | non-specific binding call
YRTRSAGV | binds
YRTRSAGD | binds
STATADVA | no binding
VRTGAVGD | binds
STAESDGA | no binding
YRTRDALV | no binding
YRTGGSGA | binds
YRTGGSGD | binds
YRTEDVGA | binds
YRTRSSVS | binds
FRTGDSLV | no binding
YRRRGYGD | binds
VRRTSAAS | binds
YRTRGSWD | binds
STAEDDWV | no binding
VRTRGSSS | binds
YRRRSSVD | binds
FRTRGSSD | binds
VRTKADAV | no binding
FRTGDDLV | no binding
YRRRGYWA | binds
VRTAASGD | binds
DRTTNAGD | no binding
VRTKDFSY | no binding

Variant | non-specific binding call
FRTGDAVF | no binding
FRTGDAVS | no binding
DTAESDLD | no binding
STAESDVA | no binding
YRTRDDVY | no binding
YRTRDDVV | no binding
YRTRDDLY | no binding
YRTGASSD | binds
VTAGDAGD | no binding
YRTKAAVD | binds
FRTRGAAA | binds
YRTGDSAA | binds
FRTRGAVV | binds
FRTEGSAD | binds
YRTRGSGF | binds
YRTRGSGY | binds
YRTRGYAV | binds
YRTKGSGV | binds
YRTAGAGD | binds
YRTAGAGV | binds
YRTRGAGD | binds
YRTRGAGV | binds
YRTRGAGA | binds
FRRTDFVA chain 1 C22Y | binds

Variant | non-specific binding call
VRTEDDAS | no binding
VTAEDFGV | no binding
VTAGDDGV | no binding
VTAGDDGS | no binding
YRTRSAVV | binds
YRTRSAVY | binds
VRTEDALD | no binding
VRTEDALV | no binding
FRTKDDVY chain 1 E46K | binds
STAEDFVV | no binding
YRTAGSGV | binds
YRTAGSGD | binds
FRTGDDGA | no binding
YTARGVSF | binds
FRTGGSAD | binds
YRTGDDVF | no binding
VRTEDSLV | no binding
VRTEDSLD | no binding
YTARGSAA | binds
VRTEDDWS | no binding
VRTEDDWY | no binding
VRTEDDWV | no binding
VRTEDDWF | no binding
VRTRSFGA | binds

Variant | non-specific binding call
VRTRGYLA | binds
YRTGDSGD | no binding
YRTGGAWD | binds
VRTRASVD | binds
YTAAADLV | binds
VTAGDSAD | no binding
FRTGDSVD | no binding
VTAGSDAV | no binding
VRRTDFVA | binds
SRTGSDVD | no binding
FRTEGSGY | binds
DTAGDAAV | no binding
YRTGAASD | binds
YRTRDAWV | binds
YTEAADGA | no binding
YRTADVGV | binds
YRRRGVSA | binds
VTATADWA | no binding
SRTRGFGS | binds
FRTGDDWV | no binding
YRTEGAVA | binds
VRTRGSGV | binds
YRTGAALS | binds
VTAGDDVY | no binding

Variant | non-specific binding call
VTAGDDVA | no binding
VRTEDAWV | no binding
VRTEDAWA | no binding
YRRRGVWA | binds
VRTEDDVA | no binding
VRTEDDVF | no binding
VRTEDDVY | no binding
VRTEDDVD | no binding
YTAGSDVA | no binding
YRTRGAVD | binds
FRTRSSGV | binds
FRTKGAWV | binds
VRTEDFGV | no binding
YRTGGSLD | binds
YTARDVGV | binds
YRTRSAWD | binds
FRTGDAWV | no binding
VRTGDDGV | no binding
FRTRDSGY chain 1 V68I | binds
YRTRDSLD | no binding
YRRRGYSS | binds
YRRRGYSD | binds
FRTKGSGD | binds
YRTGDSSA | no binding

Variant | non-specific binding call
YRTRSAAA | binds
YRTRSAAV | binds
DTAGDAVV | no binding
ATATADWA | no binding
STAESSSF | no binding
YRRRGYAA | binds
YRRRGYVV | binds
YRRRGYVD | binds
YRRRGYVF | binds
YRRRGYVA | binds
YRTRDAGY | no binding
FRTRDVGF | binds
FRTRDFLV | binds
DRTGDSSS | no binding
YRTRSSWD | binds
FRTRGVGA | binds
VRTRGAVD | binds
YRTGGAGD | no binding
VRTADDGA | no binding
FRTGDDAA | no binding
FRTGDDAV | no binding
YRTRDSAS | no binding
DTATADWA | no binding
FRTRDAGD | no binding

Variant | non-specific binding call
SRTRDAGD | no binding
FRTRDSSS | binds
YRTGAAGV | binds
VRTRGDGA | binds
STATADWV | no binding
FRTRDSLD | binds
VRRRSSLA | binds
YRRRGVGA | binds
YRRRGVGD | binds
YRRRGVGY | binds
YRRRGVGV | binds
YRRRGVGS | binds
YRRRSAGA | binds
YRRRSAVA | binds
VRTRGSWD | binds
VRTRGALS | binds
YRTKASLD | binds
ARTRTAWY | binds
FRTRSSLA | binds
YRTRDSGV | binds
YRTRGAWF | binds
YRTRGAWA | binds
YRTRSSAV | binds
FTARSAGF | binds

Variant | non-specific binding call
ATAGSDGV | no binding
VRTEDDLV | no binding
DTAEDFGV | no binding
YRTRAAWD | binds
FRTADVGV | binds
YRTRGSLY | binds
FRTRDAAA | binds
FRTKGAAD | binds
FTAGGAAD | binds
FRTGSAWF | binds
FRTGDSWD | no binding
VRTEDSWA | no binding
VRTEDSWS | no binding
STAESDLD | no binding
VRTGDSLD | no binding
VRTEDSSV | no binding
YRTKGAVY | binds
YRTGAAAD | binds
ATAGSAAV | no binding
VTAGDDAV | no binding
FRTGDSAS | no binding
YRTRGALS | binds
YRTRGALA | binds
YRTGGSSV | binds
